Data reported in US20220119534A1 (DRAGONFLY THERAPEUTICS, published 2022).
Substitutions are numbered along the chain they refer to. One block for each binder: values may come before it.

Experiments:
[1] = target: T1, Human CLEC12A expressed on cells (Ba/F3-hCLEC12A, PL21, HL60) (human, UniProt Q5QGZ9 1-265); assay: cell-based or functional assay
T1 sequence: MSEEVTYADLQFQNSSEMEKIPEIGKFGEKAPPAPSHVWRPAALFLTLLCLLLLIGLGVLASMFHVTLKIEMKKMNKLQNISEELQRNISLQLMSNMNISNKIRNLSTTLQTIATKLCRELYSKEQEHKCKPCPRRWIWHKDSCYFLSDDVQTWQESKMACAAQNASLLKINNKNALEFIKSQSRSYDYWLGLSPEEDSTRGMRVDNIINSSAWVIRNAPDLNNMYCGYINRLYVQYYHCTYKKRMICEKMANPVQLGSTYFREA

[2] = target: T2, human CLEC12A on cells (HL60, PL21, Ba/F3-hCLEC12A) (human, UniProt Q5QGZ9 1-265); assay: flow cytometry, Ba/F3-hCLEC12A cells
T2 construct: Endogenous on the AML lines HL60 and PL21; brought into mouse Ba/F3 cells by retroviral transduction; The cell line stands under assay; also called CLL-1
T2 sequence: T1 sequence

[3] = target: T2, human CLEC12A on cells (HL60, PL21, …); assay: flow cytometry, 40 nM, MFI after 2 h 37 C relative to 2 h on ice, PL21 cells
[4] = target: T2, human CLEC12A on cells (HL60, PL21, …); assay: flow cytometry, HL60 cells
[5] = target: T2, human CLEC12A on cells (HL60, PL21, …); assay: flow cytometry, PL21 cells
[6] = target: T2, human CLEC12A on cells (HL60, PL21, …); assay: flow cytometry, 40 nM, MFI after 2 h 37 C relative to 2 h on ice, HL60 cells
[7] = target: T3, human CLEC12A expressed on cells (human, UniProt Q5QGZ9 1-265); assay: flow cytometry, PL21 cells
T3 construct: Transduced isogenic cells or endogenous expression on AML cells; also called RMA-hCLEC12A; Ba/F3-hCLEC12A
T3 sequence: T1 sequence

[8] = target: T4, recombinant human CLEC12A-His (human, UniProt Q5QGZ9 65-265); assay: SPR screening
T4 construct: also called hCLEC12A-His; hCLEC12A
T4 sequence: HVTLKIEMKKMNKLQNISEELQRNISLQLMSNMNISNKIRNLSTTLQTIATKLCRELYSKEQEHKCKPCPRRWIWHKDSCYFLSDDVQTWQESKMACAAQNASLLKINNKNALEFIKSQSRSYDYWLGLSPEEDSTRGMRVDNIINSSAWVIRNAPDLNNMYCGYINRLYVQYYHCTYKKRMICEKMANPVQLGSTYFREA

[9] = target: T4, recombinant human CLEC12A-His; assay: SPR
[10] = target: T5, de-sialylated hCLEC12A (human, UniProt Q5QGZ9 65-265, terminal sialic acids removed (neuraminidase)); assay: SPR
T5 construct: also called De-sialylated CLEC12A
T5 sequence: T4 sequence

[11] = target: T6, de-glycosylated hCLEC12A (human, UniProt Q5QGZ9 65-265, N-linked glycans removed (PNGase F)); assay: SPR
T6 construct: also called PNGase-treated hCLEC12A; De-glycosylated CLEC12A
T6 sequence: T4 sequence

B1: AB0237 (F3'-1602 TriNKET) (bispecific antibody, human IgG1, kappa)
chain: QLQLQESGPGLVKPSETLSLTCTVSGFSLTNYGLHWIRQPPGKCLEWIGVIWSGGKTDYNPSLKSRVTISKDTSKNQFSLKLSSVQAADTAVYYCAKYDYDDSLDYWGQGTLVTVSSGGGGSGGGGSGGGGSGGGGSDIQMTQSPSSLSASVGDRVTITCHASQNINFWLSWYQQKPGKAPKLLIYEASNLHTGVPSRFSGSGSGTRFTLTISSLQPEDIATYYCQQSHSYPLTFGCGTKLEIKGSDKTHTCPPCPAPELLGGPSVFLFPPKPKDTLMISRTPEVTCVVVDVSHEDPEVKFNWYVDGVEVHNAKTKPREEQYNSTYRVVSVLTVLHQDWLNGKEYKCKVSNKALPAPIEKTISKAKGQPREPRVYTLPPCRDELTKNQVSLTCLVKGFYPSDIAVEWESNGQPENNYKTTPPVLVSDGSFTLYSKLTVDKSRWQQGNVFSCSVMHEALHNHYTQKSLSLSPG
heavy: EVQLVESGGGLVKPGGSLRLSCAASGFTFSSYSMNWVRQAPGKGLEWVSSISSSSSYIYYADSVKGRFTISRDNAKNSLYLQMNSLRAEDTAVYYCARGAPIGAAAGWFDPWGQGTLVTVSSASTKGPSVFPLAPSSKSTSGGTAALGCLVKDYFPEPVTVSWNSGALTSGVHTFPAVLQSSGLYSLSSVVTVPSSSLGTQTYICNVNHKPSNTKVDKKVEPKSCDKTHTCPPCPAPELLGGPSVFLFPPKPKDTLMISRTPEVTCVVVDVSHEDPEVKFNWYVDGVEVHNAKTKPREEQYNSTYRVVSVLTVLHQDWLNGKEYKCKVSNKALPAPIEKTISKAKGQPREPQVCTLPPSRDELTENQVSLTCLVKGFYPSDIAVEWESNGQPENNYKTTPPVLDSDGSFFLYSWLTVDKSRWQQGNVFSCSVMHEALHNHYTQKSLSLSPG
light: DIQMTQSPSSVSASVGDRVTITCRASQGISSWLAWYQQKPGKAPKLLIYAASSLQSGVPSRFSGSGSGTDFTLTISSLQPEDFATYYCQQGVSFPRTFGGGTKVEIKRTVAAPSVFIFPPSDEQLKSGTASVVCLLNNFYPREAKVQWKVDNALQSGNSQESVTEQDSKDSTYSLSSTLTLSKADYEKHKVYACEVTHQGLSSPVTKSFNRGEC
- % Max, ADCP activity of M0 macrophages against PL21 cells [1]: 12%
- EC50, ADCP activity of M0 macrophages against PL21 cells [1]: 0.08 nM

B2: F3'-1602 TriNKET (other)
chain: B1 chain
heavy: B1 heavy
light: B1 light
notes: F3' format TriNKET; also called AB0237
- EC50 [2]: 1.54 nM
- FOB (fold over background) [2]: 341 fold
- percent surface retention [3]: 91%
- EC50 [4]: 1.01 nM
- FOB (fold over background) [4]: 66 fold
- EC50 [5]: 0.52 nM
- FOB (fold over background) [5]: 15 fold
- percent surface retention [6]: 106%

B5: AB0305 mAb (Humanized 1739 anti-CLEC12A mAb) (antibody, IgG1, V domains shown)
VH: QLQLQESGPGLVKPSETLSLTCTVSGFSLTNYGLHWIRQPPGKGLEWIGVIWVGGATDYNPSLKSRVTISVDTSKNQFSLKLSSVQAADTAVYYCAKGDYGDTLDYWGQGTLVTVSS
VL: DIQMTQSPSSLSASVGDRVTITCHASQNINFWLSWYQQKPGKAPKLLIYEASNLHTGVPSRFSGSGSGTDFTLTISSLQPEDFATYYCQQSHSYPLTFGSGTKLEIK
notes: Parental hIgG1 mAb; also called parental mAb of AB0089
- EC50 [2]: 0.67 nM
- FOB (fold over background) [2]: 279 fold
- percent surface retention [3]: 92%
- EC50 [4]: 0.12 nM
- FOB (fold over background) [4]: 53 fold
- EC50 [5]: 0.12 nM
- FOB (fold over background) [5]: 15 fold
- percent surface retention [6]: 90%

B6: AB0037 mAb (Humanized 1602 anti-CLEC12A mAb) (antibody, V domains shown)
VH: B5 VH with V53S, A56K, V71K, G98Y, G101D, T103S
VL: B5 VL with D70R, F83I, S100G
notes: Parental mAb of AB0237; also called humanized mAb 16B8.C8; parental mAb of AB0237
- EC50 [2]: 1.4 nM
- FOB (fold over background) [2]: 301 fold
- percent surface retention [3]: 79%
- EC50 [4]: 0.52 nM
- FOB (fold over background) [4]: 51 fold
- EC50 [5]: 0.52 nM
- FOB (fold over background) [5]: 13 fold
- percent surface retention [6]: 74%

The next lines start with the values.

- EC50 [2]: 2.28 nM
- FOB (fold over background) [2]: 434 fold
- percent surface retention [3]: 124%
- EC50 [4]: 1.08 nM
- FOB (fold over background) [4]: 70 fold
- EC50 [5]: 0.34 nM
- FOB (fold over background) [5]: 16 fold
- percent surface retention [6]: 147%
B3: AB0089 TriNKET (other)
chain: B1 chain with S53V, K56A, K71V, Y98G, D101G, S103T, R207D, I220F
heavy: B1 heavy
light: B1 light
notes: F3' format TriNKET

- EC50 [7]: 2.02 nM
- Max MFI [7]: 201 MFI
B4: Merus-CLL1 (antibody, V domains shown)
VH: EVQLVQSGAEVKKPGASVKVSCKASGYTFTSYYMHWVRQAPGQGLEWMGIINPSGGSTSYAQKFQGRVTMTRDTSTSTVYMELSSLRSEDTAVYYCARGNYGDEFDYWGQGTLVTVSS
VL: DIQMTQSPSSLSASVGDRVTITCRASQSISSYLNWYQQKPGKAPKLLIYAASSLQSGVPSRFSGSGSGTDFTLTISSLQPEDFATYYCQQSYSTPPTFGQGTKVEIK

- EC50 [7]: 5 nM
- Max MFI [7]: 265 MFI
B7: Genentech-h6E7 (antibody, V domains shown)
VH: EVQLVQSGAEVKKPGASVKVSCKASGYSFTDYYMHWVRQAPGQGLEWIGRINPYNGAAFYSQNFKDRVTLTVDTSTSTAYLELSSLRSEDTAVYYCAIERGADLEGYAMDYWGQGTLVTVSS
VL: DIQMTQSPSSLSASVGDRVTITCRASQSVSTSSYNYMHWYQQKPGKPPKLLIKYASNLESGVPSRFSGSGSGTDFTLTISSLQPEDFATYYCQHSWEIPLTFGQGTKVEIK

- Kd [8]: 1.07 nM
- koff [8]: 0.00102 s⁻¹
- kon [8]: 950000 M⁻¹ s⁻¹
B8: m9F11-hIgG1 (antibody, V domains shown)
VH: EVQLQESGGGLVQPGGSRKLSCAASGFTFNSFGMHWVRQAPEKGLEWVAFISSGSTSIYYANTVKGRFTISRDNPKNTLFLQMTSLRSEDTAMYYCARDGYPTGGAMDYWGQGTSVTVSS
VL: DIKMTQSPSSMYASLGERVTITCKASQDIYNYLSWFQLKPGKSPRPLIYRANILVSGVPSKFSGSGSGQDYSLTINSLEYEDLGIYYCLQFDAFPFTFGSGTKLEIK
notes: also called chimeric parent mouse 9F11.B7 mAb

- Kd [9]: 0.96 nM
- koff [9]: 0.00111 s⁻¹
- kon [9]: 1.15e+06 M⁻¹ s⁻¹
- Kd [10]: 0.62 nM
- koff [10]: 0.00098 s⁻¹
- kon [10]: 1.58e+06 M⁻¹ s⁻¹
- Kd [11]: 0.34 nM
- koff [11]: 0.000374 s⁻¹
- kon [11]: 1.11e+06 M⁻¹ s⁻¹
B9: Murine F3'-9F11 (other)
VH: B8 VH
VL: B8 VL
notes: the text calls it clone 9F11.B7; F3' construct (scFv order, Fc, NKG2D Fab) not spelled out

- EC50 [2]: 0.68 nM
- FOB (fold over background) [2]: 303 fold
- percent surface retention [3]: 106%
- EC50 [4]: 0.26 nM
- FOB (fold over background) [4]: 47 fold
- EC50 [5]: 0.18 nM
- FOB (fold over background) [5]: 12 fold
- percent surface retention [6]: 114%
B10: AB0306 mAb (Humanized 1797 anti-CLEC12A mAb) (antibody, IgG1, V domains shown)
VH: EVQLVESGGGVVQPGGSLRLSCAASGFTFNAFGMHWVRQAPGKGLEWVAFISSGSTSIYYANTVKGRFTISRDNSKNTLYLQMNSLRAEDTAVYYCARDGYPTGGAMDYWGQGTSVTVSS
VL: DIQMTQSPSSLSASVGDRVTITCKASQDIYNYLSWFQQKPGKAPKPLIYRANILVSGVPSRFSGSGSGQDYTFTISSLQPEDIATYYCLQFDAFPFTFGSGTKLEIK
notes: Parental hIgG1 mAb of AB0192; also called parental mAb of AB0192
